Results taken from patent publication US8604172B2, “Humanized antibody compositions and methods for binding lysophosphatidic acid” (Lpath, Inc., priority 2009, dated 2013).
Marks after values point to notes of the source that are not given here.

How the values were obtained:
B16-F10 murine melanoma = B16-F10 murine melanoma experimental lung metastasis; parameters: species or system C57BL/6 mice; conditions: mouse, in vivo
Protocol: Study: The highly metastatic murine melanoma (B16-F10) was used to examine the therapeutic effect of anti-LPA mAbs on metastasis in vivo. […] 4 week old female (C57BL/6) mice received an injection of B16-F10 murine melanoma tumor cells (100 uL of 5×10^4 cells/animal) via the tail vein. Mice (10 per group) were administered 25 mg/kg of the anti-LPA mAb (either B3 or B7) or saline every three days by i.p. injection. After 18 days, lungs were harvested and analyzed. The pulmonary organs are the preferred metastatic site of the melanoma cells, and were therefore closely evaluated for metastatic nodules. The lungs were inflated with 10% buffered formalin via the trachea, in order to inflate and fix simultaneously, so that even small foci could be detectable on histological examination. Lungs were separated into five lobes and tumors were categorized by dimension (large >5 mm; medium 1-4 mm; small <1 mm) and counted under a dissecting microscope. […] For animals treated with mAb B3, large tumors were reduced by 21%, medium tumors by 17% and small tumors by 22%. Statistical analysis by student's T-test gave a p<0.05 for number of small tumors in animals treated with mAb B3 vs saline.

[1] = Competition ELISA (18:1 LPA coat), competitor 18:2 LPA; format: binding; conditions: maximum inhibition
Protocol: Many isoforms of LPA have been identified to be biologically active and it is preferable that the mAb recognize all of them to some extent to be of therapeutic relevance. The specificity of the anti-LPA mAbs was evaluated utilizing a competition assay in which the competitor lipid was added to the antibody-immobilized lipid mixture.
Competition ELISA assays were performed with the anti-LPA mAbs to assess their specificity. 18:1 LPA was captured on ELISA plates. Each competitor lipid (up to 10 uM) was serially diluted in BSA (1 mg/ml)-PBS and then incubated with the mAbs (3 nM). Mixtures were then transferred to LPA coated wells and the amount of bound antibody was measured with a secondary antibody. Data are normalized to maximum signal (A450) and are expressed as percent inhibition. Assays were performed in triplicate. IC50: Half maximum inhibition concentration; MI: Maximum inhibition (% of binding in the absence of inhibitor); - - -: not estimated because of weak inhibition. A high inhibition result indicates recognition of the competitor lipid by the antibody.

[2] = Direct binding ELISA of anti-LPA mAbs to 18:1 LPA
Protocol: The binding of 6 anti-LPA mAbs (B3, B7, B58, A63, B3A6, D22) to 12:0 and 18:1 LPA (0.1 uM) was measured by ELISA. EC50 values were calculated from titration curves using 6 increasing concentrations of purified mAbs (0 to 0.4 ug/ml). EC50 represents the effective antibody concentration with 50% of the maximum binding. Max denotes the maximal binding (expressed as OD450).

Thermostability (Tm) = format: physicochemical
Protocol: The thermostability of the humanized antibodies were studied by measuring their LPA-binding affinity (EC50) after heating using the direct binding ELISA. Antibodies dissolved in PBS (Cellgo, Cat. No 021-040) were diluted to 25 ug/ml and incubated at 60° C., 65° C., 70° C., 75° C. and 80° C. for 10 min. Prior to increasing the temperature, 10 ul of each sample was removed and diluted with 90 ul of PBS and stored on ice. The samples were then vortexed briefly and the insoluble material was removed by centrifugation for 1 min at 13,000 rpm. The binding activity of the supernatant was determined using the direct LPA-binding ELISA and compared to a control, which consisted of the same sample without heat treatment.

[3] = system: human colon cancer cell line (COLO-205); assay: Xenograft CAM assay; format: in vivo
SKOV3 cell migration = assay: SKOV3 migration assay; format: cell-based, human; conditions: Lpathomab 150 μg/mL; 1 μM 18:1 LPA; n = 3
[4] = system: renal cell carcinoma (Caki-1) cells; assay: Cell monolayer scratch assay, Caki-1; format: cell-based, human; conditions: mAb 10 μg/ml
Protocol: An important characteristic of metastatic cancers is that the tumor cells escape contact inhibition and migrate away from their tissue of origin. […] Accordingly, we tested the ability of anti-LPA mAb to block LPA-dependent cell migration in several human cancer cell lines by using the cell monolayer scratch assay. Cells were seeded in 96 well plates and grown to confluence. After 24 h of starvation, the center of the wells was scratched with a pipette tip. In this art-accepted “scratch assay,” the cells respond to the scratch wound in the cell monolayer in a stereotypical fashion by migrating toward the scratch and close the wound. Progression of migration and wound closure are monitored by digital photography at 10× magnification at desired timepoints. Cells were not treated (NT), treated with LPA ([…]) with or w/o mAb B7 (10 μg/ml) or an isotype matching non-specific antibody (NS) (10 μg/ml). In untreated cells, a large gap remains between the monolayer margins following the scratch. LPA-treated cells in contrast, have only a small gap remaining at the same timepoint, and a few cells are making contact across the gap.

[5] = system: angiogenesis in Caki-1-containing plugs; assay: Matrigel Plug assay with Caki-1 cells, CD31 staining; format: in vivo, nude (NCr Nu/Nu) female mice; conditions: 10 mg/kg every 3 days; vs saline; p<0.05
Protocol: One of the anti-LPA mAbs (B7) was tested for its ability to mitigate angiogenesis in vivo using the Matrigel Plug assay. This assay utilizes Matrigel, a proprietary mixture of tumor remnants including basement membranes derived from murine tumors. When Matrigel, or its derivate growth factor-reduced (GFR) Matrigel, is injected sc into an animal, it solidifies and forms a ‘plug.’ If pro-angiogenic factors are mixed with the matrix prior to placement, the plug will be invaded by vascular endothelial cells which eventually form blood vessels. Matrigel can be prepared either alone or mixed with recombinant growth factors (bFGF, VEGF), or tumor cells and then injected sc in the flanks of 6-week old nude (NCr Nu/Nu) female mice. In this example, Caki-1 (renal carcinoma) cells were introduced inside the Matrigel and are producing sufficient levels of VEGF and/or IL8 and LPA. Matrigel plugs were prepared containing 5×10^5 Caki-1 cells from mice treated with saline or with 10 mg/kg of anti-LPA mAb-B7, every 3 days starting 1 day prior to Matrigel implantation. Plugs were stained for endothelial CD31, followed by quantitation of the micro-vasculature formed in the plugs. Quantitation data were means+/−SEM of at least 16 fields/section from 3 plugs.

- EC50 ([2]; 18:1 LPA 0.1 uM, mAb 0 to 0.4 ug/ml): 0.274 nM
- Max (OD450), 18:1 LPA ([2]; maximal binding): 0.973 OD450
B1: LT3000: Murine anti-LPA monoclonal antibody clone B7, IgG1k, renamed Lpathomab, also known as LT3000; hybridoma 504B7.1, ATCC PTA-8420 (antibody, V domains shown)
VH: QVQLQQSGAELVRPGTSVKVSCKASGYGFINYLIEWIKQRPGQGLEWIGLINPGSDYTNYNENFKGKATLTADKSSSTAYMHLSSLTSEDSAVYFCARRFGYYGSGNYFDYWGQGTTLTVSS
VL: DVVMTQTPLSLPVSLGDQASISCTSGQSLVHINGNTYLHWYLQKPGQSPKLLIYKVSNLFSGVPDRFSGSGSGTDFTLKISRVEAEDLGVYFCSQSTHFPFTFGTGTKLEIK
- metastatic spread of B16-F10 cells to lungs (B16-F10 murine melanoma): reduced
- MI, 18:2 LPA [1]: 100%
- Tm (Thermostability (Tm); 10 min at 60-80° C., LPA binding by direct ELISA): 67 °C
- Apparent Tm (Thermostability (Tm); pH 7.4): 67 °C at pH 7.4
- tumor size [3]: significantly reduced
- Migration, % Inhibition (over LPA taken as 100) (SKOV3 cell migration): 35* %
- LPA-stimulated migration [4]: inhibitory effect
- reduction in angiogenesis [5]: greater than 50%
